Measured values published in PMC3102714, “OsSpo11-4, a Rice Homologue of the Archaeal TopVIA Protein, Mediates Double-Strand DNA Cleavage and Interacts with OsTopVIB” (PLoS ONE, 2011).

Molecular target: T1, GST-OsTopVIB fusion protein (Oryza sativa L. ssp. japonica, UniProt Q6H442 1-696)
T1 construct: OsTopVIB, Oryza sativa L. ssp. japonica; ORF amplified with primers P17 and P18, cloned BamHI/BglII into pESP-2; fusion about 103 kD; also called OsTopVIB-GST fusion; GST-TopVIB
T1 sequence (looked up): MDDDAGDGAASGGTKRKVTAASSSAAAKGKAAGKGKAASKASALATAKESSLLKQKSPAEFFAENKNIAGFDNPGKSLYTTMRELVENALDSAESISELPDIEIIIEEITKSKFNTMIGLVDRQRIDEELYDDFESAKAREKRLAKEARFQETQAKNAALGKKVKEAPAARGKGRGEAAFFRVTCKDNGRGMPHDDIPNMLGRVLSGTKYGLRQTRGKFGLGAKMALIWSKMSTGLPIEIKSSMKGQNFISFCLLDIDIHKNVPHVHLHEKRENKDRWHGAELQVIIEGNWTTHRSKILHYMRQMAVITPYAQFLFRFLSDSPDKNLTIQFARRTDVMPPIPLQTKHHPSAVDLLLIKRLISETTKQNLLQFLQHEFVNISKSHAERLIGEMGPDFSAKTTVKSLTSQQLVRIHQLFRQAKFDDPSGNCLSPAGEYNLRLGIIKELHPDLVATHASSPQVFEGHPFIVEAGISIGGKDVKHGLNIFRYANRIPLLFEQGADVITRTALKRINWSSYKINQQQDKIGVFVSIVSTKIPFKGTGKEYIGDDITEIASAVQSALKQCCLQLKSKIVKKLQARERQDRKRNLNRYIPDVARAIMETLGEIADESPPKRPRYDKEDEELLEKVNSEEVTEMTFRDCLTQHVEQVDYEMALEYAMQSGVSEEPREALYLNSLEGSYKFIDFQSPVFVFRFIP
Assay: pull-down; GST-OsTopVIB preabsorbed to Glutathione Sepharose resin; purified pET-OsSpo11-4 precleared with GST resin; 0.5% NP-40 lysis buffer (20 mM Tris-HCl pH 8.0, 200 mM NaCl, 1 mM EDTA), 4°C, 6 h; western blot with antibody against pET-OsSpo11-4
Details: both partners purified

B1: pET-OsSpo11-4 fusion protein (natural protein, Oryza sativa L. ssp. japonica, UniProt Q2QM00 1-487, looked up)
chain: MDDSTDDDSYHPRKHYAYDRQVSSSRWRTSREYIRGPGPETHTTESAQDGQDPPAGVYSYGYFSGSGNDPQVQGHFVPEIQKYNPYVIFKGEQLPVPIWELPEEKVQDFHDRYFIAKDKSRVEARKTLNRLLEGNINTIERGHGYKFNIPKYTDNMEFNEEVKVSLAKAGKTISRSFCNANQREVASRTGYTIDLIERTLGAGLNISKRTVLYTNKDLFGDQSKSDQAINDICALTNIRRGSLGIIAAEKGIVVGNIFLELTNGKSISCSIGVQIPHRLDQIKDVCVEIGSRNIEYILVVEKHTMLNYLLEMDYHTNNNCIILTGCGMPTLQTRDFLRFLKQRTGLPVFGLCDPDPEGISILATYARGSCNSAYDNFNISVPSICWVGLSSSDMIKLNLSETNYSRLSREDKTMLKNLWQDDLSDVWKRRIEEMISFDKKASFEAIHSLGFDYFATNLLPDMINKVREGYVQVQEKKEPQDTEASED
notes: OsSpo11-4, Oryza sativa L. ssp. japonica, predicted protein of 487 amino acids; full-length ORF amplified with primers P5 and P6, cloned into EcoRI/XhoI of pET-32a(+); fusion about 72 kD; Forward primer P5 lacks the ATG GAT that primer P15 has, so the insert may lack the first two codons; also called pET-Spo11-4
binding result: binds
